# Experimental data published in patent US20140196168A1 (SWETREE TECHNOLOGIES, published 2014).
# B1: ZFHD1 amino acids 1-132 (two-hybrid derivative, Gal4 activation domain fusion) (other, Arabidopsis thaliana, UniProt Q9SEZ1 1-132, looked up, not shown: large carriers)
# chain: MDLSSKPQQQLLNSLPIAGELTVTGEMGVCYKECLKNHAANLGGHALDGCGEFMPSPTATSTDPSSLRCAACGCHRNFHRRDPSENLNFLTAPPISSPSGTESPPSRHVSSPVPCSYYTSAPPHHVILSLSS
# B2: DREB2A amino acids 169-254 (two-hybrid derivative, Gal4 activation domain fusion) (other, Arabidopsis thaliana, UniProt O82132 169-254, looked up, not shown: large carriers)
# chain: CESKPFSGGVEPMYCLENGAEEMKRGVKADKHWLSEFEHNYWSDILKEKEKQKEQGIVETCQQQQQDSLSVADYGWPNDVDQSHLD
# Molecular target: T1, Gal4-DNA Binding Domain fused to the Arabidopsis thaliana Med25 551-680 amino acid domain (bait, pGBKT7-Med25 … (Arabidopsis thaliana))
# T1 construct: Expressed in yeast AH109 as a two-hybrid bait; also called G4-DBD-Med25; Med25 bait construct
# Test: yeast two-hybrid with deletion derivatives
row,Binder,binding result
1,B1,binds
2,B2,binds
